T1: enolase (Eno1) (C. albicans (endogenous in strain ATCC 10231)), P30575
T1 chain: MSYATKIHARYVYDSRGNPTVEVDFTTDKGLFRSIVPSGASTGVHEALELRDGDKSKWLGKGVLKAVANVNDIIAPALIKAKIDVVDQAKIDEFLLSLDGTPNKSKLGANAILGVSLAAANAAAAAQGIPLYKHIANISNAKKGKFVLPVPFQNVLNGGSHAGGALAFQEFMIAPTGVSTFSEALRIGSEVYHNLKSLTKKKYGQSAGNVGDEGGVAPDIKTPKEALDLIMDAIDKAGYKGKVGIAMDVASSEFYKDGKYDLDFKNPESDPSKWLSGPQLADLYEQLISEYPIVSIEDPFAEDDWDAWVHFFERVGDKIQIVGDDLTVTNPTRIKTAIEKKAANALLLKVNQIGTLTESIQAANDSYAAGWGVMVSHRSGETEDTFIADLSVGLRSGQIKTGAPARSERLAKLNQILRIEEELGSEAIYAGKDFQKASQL

T2: Phosphoglycerate mutase 1 (Gpm1), recombinant (C. albicans), P82612
T2 chain: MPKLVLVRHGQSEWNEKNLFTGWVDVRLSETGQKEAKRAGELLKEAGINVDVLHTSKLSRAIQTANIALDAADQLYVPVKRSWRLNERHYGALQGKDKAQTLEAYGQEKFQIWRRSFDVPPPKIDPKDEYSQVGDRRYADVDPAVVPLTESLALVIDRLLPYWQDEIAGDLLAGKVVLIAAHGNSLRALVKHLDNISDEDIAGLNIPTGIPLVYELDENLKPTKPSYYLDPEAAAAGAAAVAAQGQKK

B1: lactotransferrin (LF), P02788 20-710 (natural protein)
chain: GRRRSVQWCAVSQPEATKCFQWQRNMRKVRGPPVSCIKRDSPIQCIQAIAENRADAVTLDGGFIYEAGLAPYKLRPVAAEVYGTERQPRTHYYAVAVVKKGGSFQLNELQGLKSCHTGLRRTAGWNVPIGTLRPFLNWTGPPEPIEAAVARFFSASCVPGADKGQFPNLCRLCAGTGENKCAFSSQEPYFSYSGAFKCLRDGAGDVAFIRESTVFEDLSDEAERDEYELLCPDNTRKPVDKFKDCHLARVPSHAVVARSVNGKEDAIWNLLRQAQEKFGKDKSPKFQLFGSPSGQKDLLFKDSAIGFSRVPPRIDSGLYLGSGYFTAIQNLRKSEEEVAARRARVVWCAVGEQELRKCNQWSGLSEGSVTCSSASTTEDCIALVLKGEADAMSLDGGYVYTAGKCGLVPVLAENYKSQQSSDPDPNCVDRPVEGYLAVAVVRRSDTSLTWNSVKGKKSCHTAVDRTAGWNIPMGLLFNQTGSCKFDEYFSQSCAPGSDPRSNLCALCIGDEQGENKCVPNSNERYYGYTGAFRCLAENAGDVAFVKDVTVLQNTDGNNNEAWAKDLKLADFALLCLDGKRKPVTEARSCHLAMAPNHAVVSRMDKVERLKQVLLHQQAKFGRNGSDCPDKFCLFQSETKNLLFNDNTECLARLHGKTTYEKYLGPQYVAGITNLKKCSTSPLLEACEFLRK
modifications: here or on the partner: NHS-fluorescein label in flow cytometry; sulfo-SBED crosslinker in the cross-linking experiment
B2: human neutrophil elastase (HNE), P08246 30-267 (enzyme)
chain: IVGGRRARPHAWPFMVSLQLRGGHFCGATLIAPNFVMSAAHCVANVNVRAVRVVLGAHNLSRREPTRQVFAVQRIFENGYDPVNLLNDIVILQLNGSATINANVQVAQLPAQGRRLGNGVQCLAMGWGLLGRNRGIASVLQELNVTVVTSLCRRSNVCTLVRGRQAGVCFGDSGSPLVCNGLIHGIASFVRGGCASGLYPDAFAPVAQFVNWIDSIIQRSEDNPCPHPRDPDPASRTH
modifications: here or on the partner: sulfo-SBED crosslinker in the cross-linking experiment; in flow cytometry preincubated or not with 10 µM N-(Methoxysuccinyl)-Ala-Ala-Pro-Val-chloromethyl ketone

Columns and labels:
[1] = biological target: T1, enolase (Eno1) (C. albicans (endogenous …)); experiment: SPR; settings: remark: other sources report otherwise
[2] = biological target: T2, Phosphoglycerate mutase 1 (Gpm1), …; experiment: SPR; settings: remark: other sources report otherwise

Row | Binder | Kd [1] [µM] | Kd [2] [µM]
1 | B1 | 0.0722 | 0.0214
2 | B2 | 0.0361 | –

Source: paper PMC8534323
